From patent publication US20140235820A1, “METHODS AND COMPOSITIONS FOR MODULATING THE Wnt PATHWAY” (Genentech, Inc., priority 2010, published 2014)
Residue numbers refer to the chain shown, from its start.

How the values were obtained:
[1] = target: T1, LRP6 E1 (Homo sapiens, UniProt O75581); experiment: Biolayer interferometry binding to LRP6 E1
T1 construct: construct E1-amino acids A20-D325 of LPR6; made in house; host or cells: Tni insect cells (baculovirus, secreted)
T1 sequence (O75581 20-325): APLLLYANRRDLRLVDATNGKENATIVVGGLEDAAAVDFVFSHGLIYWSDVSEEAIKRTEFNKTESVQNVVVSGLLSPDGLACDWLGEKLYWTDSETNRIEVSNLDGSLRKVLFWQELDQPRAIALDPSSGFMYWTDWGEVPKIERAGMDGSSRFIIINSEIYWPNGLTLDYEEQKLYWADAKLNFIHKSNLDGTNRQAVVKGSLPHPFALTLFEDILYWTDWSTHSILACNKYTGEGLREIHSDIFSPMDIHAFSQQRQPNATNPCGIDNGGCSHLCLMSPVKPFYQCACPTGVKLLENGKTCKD
Procedure: (§1) Binding kinetics were measured by biolayer interferometry using an Octet Red instrument (ForteBio) as previously described (11). Streptavidin (SA) biosensors were loaded with biotinylated hLRP6 in 50 mMTris, pH 8, 300 mM NaCl, 5% (v/v) glycerol, and 0.05% (w/v) Triton X-100. The loaded biosensors were washed in the same buffer before carrying out association and dissociation measurements for the indicated times. The Kd of each interaction was determined using steady state-analysis through the Octet Red software v6.3. Each reported value represents an average of three or more experiments at different concentrations, with a fitted experimental curve for which the square of the correlation coefficient (R^2) is above 0.96.
The interaction of the different Dkks and sclerostin with various domains of LRP6 was measured using a biolayer interferometry assay (11). Purified receptors contained individual β-propeller-EGF-like units (E1, E2, or E4), two β-propellers (E1E2 or E3E4), or four β-propellers (E1E4))—as follows:
Human LRP6: construct E1E4-amino acids A20-Q1253 of LPR6; construct E1E2-amino acids A20-E631 of LPR6; construct E3E4 amino acids E631-Q1253 of LPR6; construct E1-amino acids A20-D325 of LPR6; construct E2-amino acids […]-E631 of LPR6; construct E4-T933-Q1253. The individual LRP6 β-propeller E3 could not be expressed.

[2] = system: LRP6 E1E2 variants with LRP5 BMD substitutions; experiment: Steady-state affinity for LRP6 E1E2 variants carrying LRP5 BMD substitutions; type: binding, human
Procedure: (§2) FIG. 13. Introduction of LRP5 BMD substitutions into LRP6 E1E2 lowers affinity for Wnt inhibitors. The five substitutions characterized are indicated on the y-axis. Steady-state affinity measurements were made for Wnt9b, Dkk1, and sclerostin binding to each of the LRP6 variants.
as §1
(§3) Cells transfected with LRP5 variants carrying BMD mutations show reduced binding to sclerostin and are less sensitive to sclerostin inhibition of Wnt10b or Wnt6 signaling (70). To further test the effects of the BMD substitutions, we introduced several of them into LRP6 E1E2, with the results shown in FIG. 13. LRP6 E1E2 Gly158Val could not be expressed in insect cells. […] Importantly, not only is the binding to sclerostin affected (70), but the binding of Dkk1 to its E1 interaction site is also impaired.

[3] = target: T2, LRP6 E1E2 variants with LRP5 BMD substitutions (Homo sapiens, UniProt O75581, R141M); experiment: as above; type: binding; conditions: LRP6 Arg141Met vs wild type LRP6 E1E2
T2 construct: construct E1E2-amino acids A20-E631 of LPR6; made in house; host or cells: insect cells (Tni, baculovirus)
T2 sequence (O75581 20-631 R141M): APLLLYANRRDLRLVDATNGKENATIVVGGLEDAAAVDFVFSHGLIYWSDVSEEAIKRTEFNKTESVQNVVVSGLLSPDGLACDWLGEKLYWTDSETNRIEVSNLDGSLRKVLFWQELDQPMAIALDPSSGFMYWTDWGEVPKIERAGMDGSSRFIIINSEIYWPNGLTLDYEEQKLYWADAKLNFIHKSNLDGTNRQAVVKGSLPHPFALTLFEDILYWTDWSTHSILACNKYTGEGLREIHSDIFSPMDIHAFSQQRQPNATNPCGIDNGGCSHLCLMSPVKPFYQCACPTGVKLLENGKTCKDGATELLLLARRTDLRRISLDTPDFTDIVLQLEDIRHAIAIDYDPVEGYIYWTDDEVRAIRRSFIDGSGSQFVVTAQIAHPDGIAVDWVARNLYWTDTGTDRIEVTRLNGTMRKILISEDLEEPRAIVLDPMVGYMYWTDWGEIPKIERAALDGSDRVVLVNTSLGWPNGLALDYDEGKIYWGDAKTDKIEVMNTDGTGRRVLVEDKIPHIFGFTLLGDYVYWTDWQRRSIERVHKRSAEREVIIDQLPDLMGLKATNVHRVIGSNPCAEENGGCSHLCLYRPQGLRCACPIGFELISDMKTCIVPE
Procedure: as §2, §1, §3

[4] = target: T3, LRP6 E1E2 variants with LRP5 BMD substitutions (Homo sapiens, UniProt O75581, N185S); experiment: as above; type: binding; conditions: LRP6 Asn185 to Ser vs wild type LRP6 E1E2
T3 construct: construct E1E2-amino acids A20-E631 of LPR6; made in house; host or cells: insect cells (Tni, baculovirus)
T3 sequence (O75581 20-631 N185S): T2 sequence (O75581 20-631 R141M) with M122R, N166S
Procedure: as §2, §1, §3

Substance	binding to LRP6 E1 (in words) [1]	effect of LRP6 BMD mutations on binding to LRP6 E1E2 (in words) [2]	loss in affinity for LRP6 E1E2 Arg141Met [3] [fold]	loss in affinity for LRP6 E1E2 Asn185Ser [4] [fold]
sclerostin: Sclerostin protein, Wnt pathway inhibitor, expressed in insect cells (LPNAIGR)	binds	disrupt the binding	31	59
Dkk1: Dickkopf 1 protein, Wnt pathway inhibitor, expressed in insect cells (NSNAIKN)	bind with high affinity	disrupt the binding	29	183
